5 molecules from paper PMC8675929 (PLoS Pathogens, 2021) can be followed below.

Experiment [1] deals with T1, 36mer repeat peptide (NANP)9 (Plasmodium falciparum repeat, synthetic …).
T1 construct: printed as (NANP)9, 36mer; nine NANP tetrapeptides of the central repeat region of Plasmodium falciparum circumsporozoite protein; source: created by Genscript, as previously described [21,40]
T1 chain: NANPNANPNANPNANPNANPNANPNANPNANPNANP
Briefly: ELISA; antigen coated at 0.5 μg/mL in bicarbonate buffer overnight at 4°C; mAbs 5x10^-7–5.0 μg/mL, 2 hrs at 37°C; HRP-conjugated goat anti-human IgG; AUC of OD450. The settings on record: both partners purified.

Experiment [2] deals with T2, recombinant C-CSP construct (PfCSP_3D7 amino acids 295–374) (Plasmodium falciparum 3D7, UniProt Q7K740).
T2 construct: also called C-terminal domain of PfCSP
Briefly: ELISA. To be noted: both partners purified.

The target of experiment [3] is T3, N-CSP (N-terminus of PfCSP) (Plasmodium falciparum 3D7, UniProt Q7K740).
T3 construct: source: created by Genscript, as previously described [21,40]
Briefly: ELISA. To be noted: both partners purified.

The target of experiment [4] is T4, full-length recombinant PfCSP (FL-rCSP) (Plasmodium falciparum 3D7 (clone of …, UniProt Q7K740)).
T4 construct: also called PfCSP_3D7
Briefly: ELISA. The settings on record: both partners purified.

Experiment [5] addresses full-length PfCSP on transgenic P. berghei sporozoites (Pb-PfCSP-GFP/Luc-SPZ) (Plasmodium falciparum, 3D7 (transgene …, UniProt Q7K740)). Briefly: flow cytometry on cells; 20 μg/mL mAb on midgut (MG) Pb-PfCSP-SPZ; goat anti-human IgG-Alexa Fluor 647. The settings on record: one partner purified.

B1: L15 (antibody, V domains shown)
VH: EVQLVESGGVVVQPGGSLRLSCAASGFTFDDYTMHWVRQAPGKGLEWVSLISWDGGTTYYADSVKGRFTISRDNSKNSLYLRMNSLRTEDTALYYCAKGLVAQWLRGDYYYGLHVWGQGTTVTVSS
VL: QSALTQPASVSGSPGQSITISCTGTSSDVGAYNSVSWYQQHPGKAPKLMIYDVTNRPSGVSNRFSGSKSGNTASLTISGLQAEDEADYYCSSYTITNTLVFGGGTKLTVL
B1: the binding result in experiment [1] is “no binding (tested: 5.0 μg/mL)”; in experiment [2], “binds”; in experiment [3], “no binding (tested: 5.0 μg/mL)”; in experiment [4], “binds”; in experiment [5], “binds”.

B2: L20 (antibody, V domains shown)
VH: EVQLVESGGGLVQPGRSLRLSCAASGFTFDDYAMHWVRQAPGKGLEWVSGINWNSGSIGYADSVKGRFTISRDNARNSLYLQMNGLRAEDTAFYYCAKDLRAYYYGSGSPWGFHHWGQGTLVTVSS
VL: QSALTQPPSASGSPGQSVTISCTGTSSDVGGYNYVSWYEQHPGKAPKLLIYEVSKRPSGVPDRFSGSKSGNTASLTVSGLQAEDEADYYCSSYAGSNNVVFGGGTKLTVL
On to B2, for which the binding result is on record as “no binding (tested: 5.0 μg/mL)” in experiment [1], “binds” in experiment [2], “no binding (tested: 5.0 μg/mL)” in experiment [3] and “binds” in experiment [4].

B3: L4 (antibody, V domains shown)
VH: QLQLQESGPRLVKPSETLSLTCTVSGGSISRTSYYWDWIRQPPGKGLEWIGSIYYRGSTYHNPSLKSRVTISVDTSKNQFSLRLTSVTAADTAVYYCARPKNLGVVAATNWFDPWGQGTLVTVSS
VL: QSVLTQPPSVSGAPGQRVTISCTGSSSNIGATYDVHWYQQLPGTAPKLLIYDNNNRPSGVPDRFSGSKSGTSASLAITGLQADDEADYYCQSYDSSLSGVVFGGGTKLTVL
B3: the binding result in experiment [1] was “no binding (tested: 5.0 μg/mL)”; in experiment [2] it was “binds”; in experiment [3] it was “no binding (tested: 5.0 μg/mL)”; in experiment [4], “binds”.

B4: 1710 (antibody, V domains shown)
VH: EVQLQESGGGLVKPGGSLRLSCAASGFTFSSYSMNWVRQAPGKGLEWVSSITSSSSYIYYADSVKGRFTISRDNAKNSLYLQMNSLRAEDTAVYYCARDPGIAAADNHWFDPWGQGTLVTVSS
VL: not shown
As to B4, the values for the binding result in experiment [2] and in experiment [3] were “binds” and “no binding (tested: 5.0 μg/mL)”, respectively.

B5: L7 (antibody, V domains shown)
VH: QLQLQESGPGLVKPSETLSLTCTVSGGSISSSNYYWDWIRQPPGKGLEWIGSINYSGSTYYNPSLKSRVTISVDTSKIQFSLKMSSVTAADTAVYYCARRRVDFWSGYNWFDPWGQGTLVTVSS
VL: QPVLTQPPSASASMGASVTLTCTLSSGYSKYKVDWYQQRPGKGPRFVMRAGTGGIVGSKGDGIPDRFSVLGSGLNRYLTIKNIQEEDESDYHCGADHGSGSNFVYVFGTGTKVTIL
Take B5: the binding result in experiment [1] is given as “no binding (tested: 5.0 μg/mL)”; in experiment [2], “binds”; in experiment [3], “no binding (tested: 5.0 μg/mL)”; in experiment [4], “binds”.
